Consider eight molecules from patent US20100196919A1, “PEPTIDES, ANTIBODIES AND FRAGMENTS THEREOF FOR THE TREATMENT AND DIAGNOSTIC OF CELIAC DISEASE” (UNIVERSITÀ DEGLI STUDI DI VERONA, priority 2007, published 2010).

Experiment [1] concerns the target T1, solid-phase tTG (Homo sapiens, UniProt P21980).
T1 construct: purchased Eurospital
T1 sequence (P21980 1-687): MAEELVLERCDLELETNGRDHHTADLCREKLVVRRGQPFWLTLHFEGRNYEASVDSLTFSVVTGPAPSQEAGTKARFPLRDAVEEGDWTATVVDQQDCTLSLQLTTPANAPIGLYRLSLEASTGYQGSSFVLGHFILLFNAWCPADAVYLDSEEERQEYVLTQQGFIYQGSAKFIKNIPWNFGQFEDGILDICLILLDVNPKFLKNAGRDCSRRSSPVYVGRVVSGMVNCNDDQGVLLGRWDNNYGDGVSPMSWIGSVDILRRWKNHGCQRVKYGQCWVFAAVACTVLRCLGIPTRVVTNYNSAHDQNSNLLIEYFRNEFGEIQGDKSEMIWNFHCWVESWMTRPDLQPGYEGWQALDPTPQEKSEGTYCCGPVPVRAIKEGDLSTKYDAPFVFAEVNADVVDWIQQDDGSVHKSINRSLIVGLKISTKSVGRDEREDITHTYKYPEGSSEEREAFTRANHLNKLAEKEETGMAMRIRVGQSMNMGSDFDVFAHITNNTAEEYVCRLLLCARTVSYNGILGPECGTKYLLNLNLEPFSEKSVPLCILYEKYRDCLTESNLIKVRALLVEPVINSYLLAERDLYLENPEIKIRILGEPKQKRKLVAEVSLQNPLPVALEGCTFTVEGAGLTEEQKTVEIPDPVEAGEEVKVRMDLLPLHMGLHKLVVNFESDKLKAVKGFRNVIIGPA
Nature of the experiment: Competitive ELISA using tTG-coated plates. The following applies: pre-incubation with competitor, 0.6-20 μg/ml. Type of experiment: binding. Here is the method: (§1) The direct and competitive ELISA for antibody binding to the synthetic peptides have already been described elsewhere. Briefly, the synthetic peptides were used at a concentration of 20 μg/ml in PBS to coat polystyrene plates (Nunc, Roskilde, Denmark). Plates were then blocked for 1 h with PBS 3% BSA. Serum samples were diluted in diluting buffer (PBS 1% BSA 0.05% Tween) and incubated on the plates for 3 h at room temperature. Plates were then washed twice with PBS 1% Tween and twice with PBS. Bound antibodies were detected by an alkaline phosphatase-conjugated anti-human IgA antiserum (1:1,000 in diluting buffer) (Sigma, St. Louis, Mo., United States) or with an alkaline phosphatase-conjugated anti-human IgG antiserum (1:2,000 in diluting buffer) (Sigma). In some experiments, an alkaline phosphatase-conjugated anti-rabbit IgG antiserum (1:2,000 in diluting buffer) (Sigma) was also used. The secondary reagents were incubated overnight at 4° C.; plates were then washed twice with PBS/Tween and twice with PBS. The alkaline phosphatase substrate (Sigma) diluted in bicarbonate buffer was then added to the wells and the plates read after 30 min or 1 h at a spectrophotometer set at 450 nm. For the competitive assay, the amount of antibody (or serum dilution) that gave 50% of the maximum binding to the antigen on the solid phase was pre-incubated for 1 h at 37° C. with different amounts of competitors (20, 10, 5, 2.5, 1.25, 0.6 μg/ml) or buffer (diluting buffer as the one used in the direct ELISA) and then transferred to the antigen-coated plates. The assay was then carried on as the direct binding assay. For the competitive ELISAs presented in this paper in particular, the following experimental conditions were used. (1) Competitive ELISA using tTG-coated plates. Plates coated with human recombinant tTG were purchased from Eurospital. Serum samples in diluting buffer (serum dilution ranged from 1:400 to 1:1,600 corresponding to 50% maximal binding to solid-phase tTG) were pre-incubated with increasing concentration of competitors (synthetic peptides or recombinant human tTG: 20, 10, 5, 2.5, 1.25, 0.6 μg/ml) for 1 h at 37° C. The mixture was then transferred to the tTG-coated plate. The remainder of the assay was performed as the direct binding assay. Results are expressed as: […]

For experiment [2], the target named is T2, solid-phase HSP60 (Homo sapiens, UniProt P10809).
T2 construct: purchased Stressgen
T2 sequence (P10809 27-573): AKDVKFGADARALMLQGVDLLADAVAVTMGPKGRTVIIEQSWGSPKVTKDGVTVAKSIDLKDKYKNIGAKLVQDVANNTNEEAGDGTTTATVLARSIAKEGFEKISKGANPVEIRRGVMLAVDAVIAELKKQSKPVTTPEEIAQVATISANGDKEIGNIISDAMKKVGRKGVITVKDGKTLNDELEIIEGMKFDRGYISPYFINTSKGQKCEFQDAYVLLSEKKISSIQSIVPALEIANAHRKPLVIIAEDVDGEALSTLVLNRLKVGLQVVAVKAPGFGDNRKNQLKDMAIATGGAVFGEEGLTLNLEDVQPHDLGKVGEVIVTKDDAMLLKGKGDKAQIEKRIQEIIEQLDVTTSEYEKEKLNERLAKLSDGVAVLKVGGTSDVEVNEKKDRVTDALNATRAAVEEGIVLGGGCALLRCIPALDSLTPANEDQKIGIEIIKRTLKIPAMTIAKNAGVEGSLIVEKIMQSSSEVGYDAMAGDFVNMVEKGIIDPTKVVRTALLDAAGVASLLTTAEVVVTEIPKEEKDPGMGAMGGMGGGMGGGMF
Nature of the experiment: Competitive ELISA on solid-phase HSP60. The following applies: pre-incubation with competitor. Type of experiment: binding. Here is the method:
as §1, with “Serum samples in diluting buffer (serum dilution ranged from 1:400 to 1:1,600 corresponding to 50% maximal binding to solid-phase tTG) were pre-incubated with increasing concentration of competitors (synthetic peptides or recombinant human tTG: 20, 10, 5, 2.5, 1.25, 0.6 μg/ml) for 1 h at 37° C. The mixture was then transferred to the tTG-coated plate. The remainder of the assay was performed as the direct binding assay.” left out

Experiment [3] has as its system Human monocytes. Nature of the experiment: Stimulation of monocytes, FACS analysis of activation markers. Format: cell-based. Conditions: monocytes incubated overnight, antibody preparations 20 μg/ml, LPS 1 μg/ml. Here is the method:
Human monocytes were isolated from normal donors and incubated overnight at a density of 1×10^6 cells/ml in RPMI 10% FCS in 24-well plates in the presence of the antibody preparations (20 μg/ml) or lipopolysaccharide (LPS) (1 μg/ml) (Sigma). The medium used and all the antibody preparations were treated with Detoxi-gel endotoxin-removing columns (Pierce). Presence of LPS contaminants in the antibody preparation and buffers as well as in the culture medium was assessed using the HEK-Blue LPS Detection Kit (Invivogen); all the antibody preparation and buffers used throughout the study were devoided of LPS contaminants. Monocytes were then used for fluorescence-activated cell sorting (FACS) analysis.
Cells were incubated with R-phycoerythrin directly conjugated anti-CD1, -CD83, and -CD86 antibodies for 30 min on ice. […] Samples were run on a FACScan flow cytometer (Becton Dickinson, Mountain View, Calif., United States). All the antibodies used were purchased from Immunotech (Marseille, France).

Experiment [4] has as its target T3, solid-phase desmoglein 1 (Homo sapiens, UniProt Q02413).
T3 construct: purchased MBL
T3 sequence (Q02413 50-1049): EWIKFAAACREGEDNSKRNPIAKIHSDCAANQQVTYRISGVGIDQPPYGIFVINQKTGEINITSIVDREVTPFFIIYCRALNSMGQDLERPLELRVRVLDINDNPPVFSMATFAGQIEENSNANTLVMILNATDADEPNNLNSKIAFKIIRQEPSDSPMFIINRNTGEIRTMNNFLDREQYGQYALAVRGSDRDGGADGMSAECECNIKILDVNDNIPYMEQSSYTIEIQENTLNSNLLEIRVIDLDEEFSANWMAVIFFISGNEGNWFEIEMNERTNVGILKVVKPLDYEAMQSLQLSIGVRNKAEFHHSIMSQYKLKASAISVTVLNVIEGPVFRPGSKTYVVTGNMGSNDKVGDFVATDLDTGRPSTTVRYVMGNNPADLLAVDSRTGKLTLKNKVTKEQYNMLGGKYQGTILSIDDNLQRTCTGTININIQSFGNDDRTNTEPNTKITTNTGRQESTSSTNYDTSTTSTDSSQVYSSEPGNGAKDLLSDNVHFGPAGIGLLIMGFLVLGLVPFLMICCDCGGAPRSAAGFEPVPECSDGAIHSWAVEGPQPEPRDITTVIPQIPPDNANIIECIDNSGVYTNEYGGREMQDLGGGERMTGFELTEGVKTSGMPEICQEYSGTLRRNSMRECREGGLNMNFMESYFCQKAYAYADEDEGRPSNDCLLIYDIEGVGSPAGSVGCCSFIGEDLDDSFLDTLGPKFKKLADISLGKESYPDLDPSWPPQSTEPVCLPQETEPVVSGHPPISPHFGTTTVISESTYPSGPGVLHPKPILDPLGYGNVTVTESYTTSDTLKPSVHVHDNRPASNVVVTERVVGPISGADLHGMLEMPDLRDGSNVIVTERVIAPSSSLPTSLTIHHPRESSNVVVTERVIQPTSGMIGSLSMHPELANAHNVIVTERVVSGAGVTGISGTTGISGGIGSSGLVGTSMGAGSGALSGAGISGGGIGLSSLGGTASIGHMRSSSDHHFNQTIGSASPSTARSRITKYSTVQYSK
Nature of the experiment: Competitive ELISA with desmoglein 1-coated plates. Conditions: liquid-phase competitor, 0.6-20 μg/ml. Format: binding. Here is the method:
Desmoglein 1-coated plates were purchased from MBL (Woburn, Mass., United States). Serum samples in diluting buffer (serum dilution ranged from 1:400 to 1:800 corresponding to 50% maximal binding to solid-phase desmoglein 1) were pre-incubated with increasing concentrations of competitors (synthetic peptides and recombinant human tTG: 20, 10, 5, 2.5, 1.25, 0.6 μg/ml) for 1 h at 37° C. The mixture was then transferred to the desmoglein-coated plate. In this particular assay, the authors used the desmoglein 1 peptide as liquid-phase competitor, since the only liquid-phase recombinant desmoglein 1 available is an Fc chimera.

Experiment [5] deals with T84 human intestinal epithelial cell line. As to the kind of experiment: [3H] mannitol flux across T84 monolayers. The following applies: pre-incubation of antibodies with the substance; T84, 3 h. Type of experiment: cell-based. Here is the method: T84 cells obtained from the American Type Culture Collection (Manassas, Va., United States) were grown in a 5% CO2 humidified incubator at 37° C. on 162-cm^2 flasks (Corning Costar, Acton, Mass., United States) with media containing a 1:1 mixture of Ham's F-12 nutrient mixture and DMEM supplemented with 6% heat-inactivated fetal bovine serum, 15 mM HEPES, 14.3 mM NaHCO3, and antibiotics (penicillin and streptomycin)-antimycotics (pH 7.4). Cells were passaged weekly on reaching confluence. For experiments, cells were plated onto collagen-coated permeable supports, where they were fed every 3 d and used from days 7-14 (within fifth passage).
Confluent T84 monolayers grown on 4.7 cm^2 transwell inserts were incubated in HEPES-phosphate-buffered Ringer solution (HPBR, containing 135 mM NaCl, 5 mM KCl, 3.33 mM NaHPO4, 1 mM CaCl2, 1 mM MgCl2, 10 mM glucose, and 5 mM HEPES [pH 7.4]) for 30 min, followed by treatment with basolaterally applied Igs (20 μg/ml) in the presence of [^3H] mannitol (5 μCi/ml) in the basolateral compartment. Apical solution was sampled every 30 min (to detect the presence of [^3H] mannitol) and exchanged with fresh HPBR buffer solution for a total of 4 h. The collected apical samples were placed in vials containing scintillation fluid and analyzed for the presence of [^3H] mannitol by scintillation counter.

Experiment [6] concerns the target T4, solid-phase TLR4 peptide (Homo sapiens, UniProt O00206).
T4 construct: made in house; host or cells: chemical solid-phase synthesis (FMOC)
Nature of the experiment: Competitive ELISA on solid-phase TLR4 peptide. Type of experiment: binding. Conditions: liquid-phase competitor. Here is the method:
as §1

As to RIRVGQSMNMGS [tTG peptide], in experiment [1], the “inhibition of antibody binding to solid-phase tTG by liquid-phase competitor” value is “inhibited”. Further, in experiment [2], the “inhibition of antibody binding to solid-phase HSP60 by liquid-phase competitor” value was “inhibited”.
lipopolysaccharide [LPS]: the “Percentage of positive cells, CD83” value in experiment [3] (medium alone 9.4%) stood at 45%. Also, the “Percentage of positive cells, CD40” value in experiment [3] (medium alone 62.3%) came out at 89%.
Turning to VVKVGGSSSLGW [celiac peptide], in experiment [4], the “inhibition of binding of anti-celiac peptide antibodies to solid-phase desmoglein 1” value (from here on “inhibition … to solid-phase desmoglein 1”) is “inhibited”. Also, in experiment [1], the “inhibition of antibody binding to solid-phase tTG by liquid-phase competitor” value is recorded as “inhibited”. Moreover, in experiment [5], the “blocking of the effect of anti-celiac peptide antibodies on cell permeability” value (shortened to “blocking”) is “blocked”. In addition, the “inhibition of antibody binding to solid-phase HSP60 by liquid-phase competitor” value in experiment [2] is given as “inhibited”. Further, the “inhibition of binding of anti-celiac peptide antibodies to solid-phase TLR4 peptide” value (“inhibition … to solid-phase TLR4 peptide” below) in experiment [6] is listed as “Inhibition”.
LSSLGGTASIGH [desmoglein 1 peptide]: the “inhibition … to solid-phase desmoglein 1” value in experiment [4] was “inhibited”.
With “VTLPKDSDVELP [irrelevant control peptide]”, in experiment [1], the “inhibition of antibody binding to solid-phase tTG by liquid-phase competitor” value is given as “not”. Also, the “blocking” value in experiment [5] is given as “not”. Moreover, in experiment [6], the “inhibition … to solid-phase TLR4 peptide” value is reported as “not”.
As for VIQVGGSNVLDI [VP-7 peptide], in experiment [4], the “inhibition … to solid-phase desmoglein 1” value is reported as “inhibited”. In addition, in experiment [1], the “inhibition of antibody binding to solid-phase tTG by liquid-phase competitor” value is listed as “inhibited”. Further, the “inhibition of antibody binding to solid-phase HSP60 by liquid-phase competitor” value in experiment [2] was “inhibited”. In experiment [6], the “inhibition … to solid-phase TLR4 peptide” value is “Inhibition”.
As for VLKMAGNSFQEN [TLR4 peptide], in experiment [4], the “inhibition … to solid-phase desmoglein 1” value is on record as “inhibited”. The “inhibition … to solid-phase TLR4 peptide” value in experiment [6] is reported as “Inhibition”.

B1: human recombinant tTG: commercially available recombinant human tissue transglutaminase used as competitor (protein, UniProt P21980 2-687, looked up)
Protein-glutamine …: AEELVLERCDLELETNGRDHHTADLCREKLVVRRGQPFWLTLHFEGRNYEASVDSLTFSVVTGPAPSQEAGTKARFPLRDAVEEGDWTATVVDQQDCTLSLQLTTPANAPIGLYRLSLEASTGYQGSSFVLGHFILLFNAWCPADAVYLDSEEERQEYVLTQQGFIYQGSAKFIKNIPWNFGQFEDGILDICLILLDVNPKFLKNAGRDCSRRSSPVYVGRVVSGMVNCNDDQGVLLGRWDNNYGDGVSPMSWIGSVDILRRWKNHGCQRVKYGQCWVFAAVACTVLRCLGIPTRVVTNYNSAHDQNSNLLIEYFRNEFGEIQGDKSEMIWNFHCWVESWMTRPDLQPGYEGWQALDPTPQEKSEGTYCCGPVPVRAIKEGDLSTKYDAPFVFAEVNADVVDWIQQDDGSVHKSINRSLIVGLKISTKSVGRDEREDITHTYKYPEGSSEEREAFTRANHLNKLAEKEETGMAMRIRVGQSMNMGSDFDVFAHITNNTAEEYVCRLLLCARTVSYNGILGPECGTKYLLNLNLEPFSEKSVPLCILYEKYRDCLTESNLIKVRALLVEPVINSYLLAERDLYLENPEIKIRILGEPKQKRKLVAEVSLQNPLPVALEGCTFTVEGAGLTEEQKTVEIPDPVEAGEEVKVRMDLLPLHMGLHKLVVNFESDKLKAVKGFRNVIIGPA
Consider B1, for which the “inhibition … to solid-phase desmoglein 1” value in experiment [4] was “inhibited”. Also, the “blocking” value in experiment [5] is “blocked”.
